Results: PMC4866688, “Trypanosoma brucei DHFR-TS Revisited: Characterisation of a Bifunctional and Highly Unstable Recombinant Dihydrofolate Reductase-Thymidylate Synthase” (PLoS Neglected Tropical Diseases, 2016)

Substrate: O=c1ccn([C@H]2C[C@H](O)[C@@H](COP(=O)(O)O)O2)c(=O)[nH]1
Experiment: Kinetic analysis of TS activity (substrates)
Assay type: biochemical, Trypanosoma brucei
Settings: other: clarified E. coli lysate, spectrophotometric assay
Description: The initial characterisation of TS was also carried out using a spectrophotometric assay. Owing to the pronounced instability of the recombinant protein, clarified ThyA^- E. coli lysates were used for characterisation, where the concentration of TS was calculated based on DHFR activity. […] . Enzymatic reactions were initiated by the addition of CH2THF (200 μM, Shircks Laboratories) and initial rates of CH2THF oxidation to DHF monitored by the increase in absorbance at 340 nm (ε = 6,200 M^-1 cm^-1). This method is not suitable for determination of the Km^app for CH2THF and a radiometric method was used instead. This method measures the release of tritiated water from 5-[^3H]-dUMP (American Radiochemicals, 14.3 Ci mmol^-1). Assays (40 μl final volume) contained 200 nM TS and varying amounts of CH2THF (37.5 μM– 4.8 mM) in DHFR-assay buffer. Reactions were initiated by adding 200 μM [^3H]-dUMP (5.55 × 10^5 dpm nmol^-1) and stopped after 10 min by the addition of 20 μl trichloroacetic acid. Residual 5-[^3H]-dUMP was removed by the addition of 200 μl of 10% (w/v) activated charcoal (Sigma). Aliquots (100 μl) of the supernatants were added to 2 ml of scintillation fluid (Pico-Fluor 40™, Packard Bioscience) and radioactivity determined using a Beckmann LS 6500 Scintillation Counter. […] Protein concentrations were determined using the BioRad protein assay based on the method of Bradford. […]

B1: T. brucei TS (Tsf-TbDHFR-TS) (Trypanosoma brucei brucei) (protein)
chain: MLSLTRILRKKIPVHELAGKISRPPLRPFSVVVASDEKGGIGDGGTIPWEIPEDMQYFRRVTTNLRGKNVKPSPSKRNAVVMGRKTWDSLPPKFRPLSNRLNVVLSRSATKEQLLAGIPDPIKRAEAANDVVAVNGGLEDALRMLVSKEHTSSIETVFCIGGGTIYKQALCAPCVNVLQAIHRTVVRPASNSCSVFFDIPAAGTKTPEGLELVRESITDERVSTGAGGKKYQFEKLVPRNSEEEQYLNLVGRIIDEGCTKCDRTGVGTRSLFGAQMRFSLRNNRLPLLTTKRVFWRGVCEELLWFLRGETNAKLLSDKGIHIWDGNGSRAFLDSRGLTDYDEMDLGPVYGFQWRHFGADYISCKVDSEGKGVDQIANIVKSLIENPDDRRMICTAWNPAALPRMALPPCHMMAQFYVSNGELSCMLYQRSCDMGLGVPFNIASYALLTFLMAKASGLRPGELVHTLGDAHVYSNHVEPCRKQLKRVPRPFPFIVFKQDKEFLEDFQESDIEVIDYSPYPVISMEMAV
notes: The open reading frame of DHFR-TS was amplified by PCR from T. brucei gDNA using specific oligonucleotides; made in house; host or cells: thyA- E. coli derived from BL21 Star (DE3); unpurified clarified lysate
Km: 8.2 ± 0.6 µM
